In data set [1] the target is T1, His6-LacI-59 (UniProt P03023 59-360, del1-58). Briefly: filter binding.
Data set [2] has as its target His6-LacI-51 (UniProt P03023 51-360, del1-50). Kind of data set: filter binding.
In data set [3] the target is wild-type LacI (UniProt P03023 1-360). Briefly: EMSA.
For data set [4], the target named is T1, His6-LacI-59. Briefly: EMSA.

T1 sequence (P03023 59-360, stated change not applied): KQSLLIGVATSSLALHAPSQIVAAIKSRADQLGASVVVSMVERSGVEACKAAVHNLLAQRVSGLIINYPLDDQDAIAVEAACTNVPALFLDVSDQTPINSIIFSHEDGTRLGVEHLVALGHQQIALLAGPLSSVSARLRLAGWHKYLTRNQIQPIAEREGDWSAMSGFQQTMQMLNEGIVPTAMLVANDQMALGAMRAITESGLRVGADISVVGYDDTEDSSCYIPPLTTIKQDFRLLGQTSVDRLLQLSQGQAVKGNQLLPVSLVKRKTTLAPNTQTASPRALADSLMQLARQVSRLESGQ
Chain of His6-LacI-51 (P03023 51-360, stated change not applied): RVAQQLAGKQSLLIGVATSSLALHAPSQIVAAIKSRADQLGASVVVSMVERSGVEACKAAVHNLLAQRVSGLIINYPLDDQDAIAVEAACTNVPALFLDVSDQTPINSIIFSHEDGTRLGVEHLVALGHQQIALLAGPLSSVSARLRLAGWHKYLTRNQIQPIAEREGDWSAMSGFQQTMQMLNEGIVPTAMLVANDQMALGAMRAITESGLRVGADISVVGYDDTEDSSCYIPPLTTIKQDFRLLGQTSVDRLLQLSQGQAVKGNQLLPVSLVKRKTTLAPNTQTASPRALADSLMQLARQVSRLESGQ
Chain of wild-type LacI (P03023 whole entry): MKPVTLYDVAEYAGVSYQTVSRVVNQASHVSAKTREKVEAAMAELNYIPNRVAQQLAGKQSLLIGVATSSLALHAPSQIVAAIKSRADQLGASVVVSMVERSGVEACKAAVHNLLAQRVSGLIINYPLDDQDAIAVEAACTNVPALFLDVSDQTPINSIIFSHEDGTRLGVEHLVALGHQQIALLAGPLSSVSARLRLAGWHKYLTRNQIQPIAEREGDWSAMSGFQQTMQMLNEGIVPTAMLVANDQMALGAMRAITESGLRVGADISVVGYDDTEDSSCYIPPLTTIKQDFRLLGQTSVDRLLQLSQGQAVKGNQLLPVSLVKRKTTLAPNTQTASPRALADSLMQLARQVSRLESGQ

B1: Oscram 40 bp (dsDNA)
DNA 1: GTCATAAGTATCGTGAACTGCTGAGAGTGCTAGCGTTAGT
DNA 2: ACTAACGCTAGCACTCTCAGCAGTTCACGATACTTATGAC
For the molecule B1, in data set [1], the binding result is “no binding”. In addition, in data set [2], the “apparent K (half saturation)” value was approximately 5 µM.

B2: O1 operator 40 bp (dsDNA)
DNA 1: TGTTGTGTGGAATTGTGAGCGGATAACAATTTCACACAGG
DNA 2: CCTGTGTGAAATTGTTATCCGCTCACAATTCCACACAACA
For B2, the binding result was “binds” in data set [3] and “no binding” in data set [4].

Values taken from publication PMC5866929.
